B1: anti-MS4A4A antibody 4A-357 (antibody, V domains shown)
VH: QVQLVQSGSELKKPGASVKVSCKASGYIFTSYGLSWVRQAPGQGLEWMGWINTYSGVPTYAQGFTGRFVFSLDTSVSTAYLQISSLKAEDTAVYYCARTLADYWGQGTLVTVSS
VL: DVVMTQSPLSLPVTLGQPASISCKSSQSLLYSDGKTYLSWFQQRPGQSPRRLIYEVSKLDSGVPDRFSGSGSGTDFTLKISRVEAEDVGVYYCWQGIDFHQTFGGGTKVEIK
B2: anti-MS4A4A antibody 4A-367 (antibody, V domains shown)
VH: QVQLVQSGSELKKPGASVKVSCKASGYTFTSYGLSWIRQAPGQGLEWMGWINTYSGVPTYAQGFTGRFVFSLDTSVSTAYLQISSLKAEDTAVYYCARTMVDYWGQGTLVTVSS
VL: DVVMTQSPLSLPVTLGQPASISCKSSQSLLYSDGKTYLSWFQQRPGQSPRRLIYLVSKLDSGVPDRFSGSGSGTDFTLKISRVEAEDVGVYYCWQGIDFHQTFGGGTKVEIK
B3: anti-MS4A4A antibody 4A-364 (antibody, V domains shown)
VH: QVQLVQSGSELKKPGASVKVSCKASGYTFTSYGLSWIRQAPGQGLEWMGWINTYSGVPTYAQGFTGRFVFSLDTSVSTAYLQISSLKAEDTAVYYCARTMVDYWGQGTLVTVSS
VL: DVVMTQSPLSLPVTLGQPASISCKASQSLLYSDGKTYLSWFQQRPGQSPRRLIYLVSKLDSGVPDRFSGSGSGADFTLKISRVEAEDVGVYYCWQGIDFHQTFGGGTKVEIK
B4: anti-MS4A4A antibody 4A-371 (antibody, V domains shown)
VH: QVQLVQSGSELKKPGASVKVSCKASGYIFTSYGLSWVRQAPGQGLEWMGWINTYSGVPTYAQGFTGRFVFSLDTSVSTAYLQISSLKAEDTAVYYCARTLGDYWGQGTLVTVSS
VL: DVVMTQSPLSLPVTLGQPASISCKSSQSLLYSDGKTYLSWFQQRPGQSPRRLIYLVSKLDSGVPDRFSGSGSGTDFTLKISRVEAEDVGVYYCWQGIDFHQTFGGGTKVEIK
B5: anti-MS4A4A antibody 4A-361 (antibody, V domains shown)
VH: QVQLVQSGSELKKPGASVKVSCKASGYIFTSYGLSWVRQAPGQGLEWMGWINTYSGVPTYAQGFTGRFVFSLDTSVSTAYLQISSLKAEDTAVYYCARTLADYWGQGTLVTVSS
VL: DVVMTQSPLSLPVTLGQPASISCKSSQSLLYSDGKTYLSWFQQRPGQSPRRLIYLVSKLESGVPDRFSGSGSGTDFTLKISRVEAEDVGVYYCWQGIDFHQTFGGGTKVEIK
B6: anti-MS4A4A antibody 4A-372 (antibody, V domains shown)
VH: QVQLVQSGSELKKPGASVKVSCKASGYIFTSYGLSWVRQAPGQGLEWMGWINTYSGVPTYAQGFTGRFVFSLDTSVSTAYLQISSLKAEDTAVYYCARTLGDYWGQGTLVTVSS
VL: DVVMTQSPLSLPVTLGQPASISCKSSQSLLYSDGKTYLSWFQQRPGQSPRRLIYLVSRLDSGVPDRFSGSGSGTDFTLKISRVEAEDVGVYYCWQGIDFHQTFGGGTKVEIK
B7: anti-MS4A4A antibody 4A-375 (antibody, V domains shown)
VH: QVQLVQSGSELKKPGASVKVSCKASGYIFTSYGLSWVRQAPGQGLEWMGWINTYSGVPTYAQGFTGRFVFSLDTSVSTAYLQISSLKAEDTAVYYCARSLADYWGQGTLVTVSS
VL: DVVMTQSPLSLPVTLGQPASISCKSSRSLLYSDGKTYLSWFQQRPGQSPRRLIYLVSKLDSGVPDRFSGSGSGTDFTLKISRVEAEDVGVYYCWQGIDFHQTFGGGTKVEIK
B8: anti-MS4A4A antibody 4A-365 (antibody, V domains shown)
VH: QVQLVQSGSELKKPGASVKVSCKASGYTFTSYGLSWIRQAPGQGLEWMGWINTYSGVPTYAQGFTGRFVFSLDTSVSTAYLQISSLKAEDTAVYYCARTMVDYWGQGTLVTVSS
VL: DVVMTQSPLSLPVTLGQPASISCKSSQSLLYSDGKTYLSWFQQRPGQSPRRLIYLVSKLSSGVPDRFSGSGSGTDFTLKISRVEAEDVGVYYCWQGIDFHQTFGGGTKVEIK
B9: anti-MS4A4A antibody 4A-363 (antibody, V domains shown)
VH: QVQLVQSGSELKKPGASVKVSCKASGYIFTSYGLSWVRQAPGQGLEWMGWINTYSGVPTYAQGFTGRFVFSLDTSVSTAYLQISSLKAEDTAVYYCARTLADYWGQGTLVTVSS
VL: DVVMTQSPLSLPVTLGQPASISCKSSQSLLYSDGKTYLSWFQQRPGQSPRRLIYLVSKLSSGVPDRFSGSGSGTDFTLKISRVEAEDVGVYYCWQGIDFHQTFGGGTKVEIK
B10: anti-MS4A4A antibody 4A-370 (antibody, V domains shown)
VH: QVQLVQSGSELKKPGASVKVSCKASGYIFTSYGLSWVRQAPGQGLEWMGWINTYSGVPTYAQGFTGRFVFSLDTSVSTAYLQISSLKAEDTAVYYCARTLGDYWGQGTLVTVSS
VL: DVVMTQSPLSLPVTLGQPASISCKSGQSLLYSDGKTYLSWFQQRPGQSPRRLIYLVSRLDSGVPDRFSGSGSGTDFTLKISRVEAEDVGVYYCWQGIDFHQTFGGGTKVEIK
B11: anti-MS4A4A antibody 4A-374 (antibody, V domains shown)
VH: QVQLVQSGSELKKPGASVKVSCKASGYIFTSYGLSWVRQAPGQGLEWMGWINTYSGVPTYAQGFAGRFVFSLDTSVSTAYLQISSLKAEDTAVYYCARTLVDYWGQGTLVTVSS
VL: DVVMTQSPLSLPVTLGQPASISCKSSRSLLYSDGKTYLSWFQQRPGQSPRRLIYLVSKLDSGVPDRFSGSGSGTDFTLKISRVEAEDVGVYYCWQGIDFHQTFGGGTKVEIK
B12: anti-MS4A4A antibody 4A-366 (antibody, V domains shown)
VH: QVQLVQSGSELKKPGASVKVSCKASGYTFTSYGLSWIRQAPGQGLEWMGWINTYSGVPTYAQGFTGRFVFSLDTSVSTAYLQISSLKAEDTAVYYCARTMVDYWGQGTLVTVSS
VL: DVVMTQSPLSLPVTLGQPASISCKSSRSLLYSDGKTYLSWFQQRPGQSPRRLIYLVSKLDSGVPDRFSGSGSGTDFTLKISRVEAEDVGVYYCWQGIDFHQTFGGGTKVEIK
B13: anti-MS4A4A antibody 4A-368 (antibody, V domains shown)
VH: QVQLVQSGSELKKPGASVKVSCKASGYTFTSYGLSWIRQAPGQGLEWMGWINTYSGVPTYAQGFTGRFVFSLDTSVSTAYLQISSLKAEDTAVYYCARTMVDYWGQGTLVTVSS
VL: DVVMTQSPLSLPVTLGQPASISCKSSQSLLYSDGKTYLSWFQQRPGQSPRRLIYLVSKLESGVPDRFSGSGSGTDFTLKISRVEAEDVGVYYCWQGIDFHQTFGGGTKVEIK
B14: anti-MS4A4A antibody 4A-359 (antibody, V domains shown)
VH: QVQLVQSGSELKKPGASVKVSCKASGYIFTSYGLSWVRQAPGQGLEWMGWINTYSGVPTYAQGFTGRFVFSLDTSVSTAYLQISSLKAEDTAVYYCARTLADYWGQGTLVTVSS
VL: DVVMTQSPLSLPVTLGQPASISCKASQSLLYSDGKTYLSWFQQRPGQSPRRLIYLVSKLDSGVPDRFSGSGSGADFTLKISRVEAEDVGVYYCWQGIDFHQTFGGGTKVEIK
B15: anti-MS4A4A antibody 4A-21 (antibody, V domains shown)
VH: QIQLVQSGPELKKPGETVKISCKASGYIFTSYGLSWVKQTPGKGLKWMGWINTYSGVPTYANDFKGRFAFSLETSASTTYLRINNLKNDDTATYFCARSLVDYWGQGTPLTVSS
VL: not shown

In patent US20210079074A1 one finds OD450 and MFI data, which are given here for 15 molecules.

One test deals with recombinant MS4A4A soluble polypeptide JS5. Put plainly: ELISA, 0.4 ug/ml antibody.
Settings: not given
Background: In an ELISA, binding on a coated surface is turned into a signal by an enzyme label.
B1: the OD450 was 0.892.
As to B2, the OD450 was determined as 0.961.
Turning to B3, the OD450 worked out at 0.959.
With B4, the OD450 came out at 0.955.
The same measure, in the same setting: the value for B5 was 0.79; that for B6 was 0.873.
As for B7, the OD450 came to 0.996.
In the case of B8, the OD450 turned out to be 0.845.
With B9, the OD450 was 0.833.
Take B10: the OD450 is 0.822.
For B11, the OD450 turned out to be 0.833.
Regarding B12, the OD450 worked out at 0.875.
As for B13, the OD450 amounted to 0.901.
As to B14, the OD450 came to 0.892.

Another test has as its target human MS4A4A (human), Q96JQ5. The experiment in a line: FACS, U937-huMS4A4A, 5 ug/ml. Conditions: remark: other sources report otherwise. For orientation: A flow cytometer gives signals particle by particle.
Turning to B15, the MFI is 670.

In the next test the target is human MS4A4A (human), Q96JQ5. Put plainly: FACS, U937-huMS4A4A, 5 ug/ml. The note with it: remark: other sources report otherwise. This is another data set of the same source.
On to B15, for which the MFI came to 18800.
